Laboratory results from paper PMC10641069, “Intra- and inter-molecular regulation by intrinsically-disordered regions governs PUF protein RNA binding” (Nature Communications, 2023).
Like-named read-outs stand apart in the source and are kept apart here.

What was measured:
FBF-2 RBD + CT L610A = target: T1, FBF-2 RBD + CT L610A (Caenorhabditis elegans, UniProt Q09312, L610A); type: binding, C. elegans; conditions: pH 7.4
T1 construct: A cDNA fragment encoding C. elegans FBF-2 RBD + CT (residues 164-632) was cloned into the pSMT3 vector; His6-SUMO (N, cleaved yes); made in house; host or cells: E. coli BL21-CodonPlus (DE3)-RIL (as for wild type)
T1 sequence (Q09312 164-632 L610A): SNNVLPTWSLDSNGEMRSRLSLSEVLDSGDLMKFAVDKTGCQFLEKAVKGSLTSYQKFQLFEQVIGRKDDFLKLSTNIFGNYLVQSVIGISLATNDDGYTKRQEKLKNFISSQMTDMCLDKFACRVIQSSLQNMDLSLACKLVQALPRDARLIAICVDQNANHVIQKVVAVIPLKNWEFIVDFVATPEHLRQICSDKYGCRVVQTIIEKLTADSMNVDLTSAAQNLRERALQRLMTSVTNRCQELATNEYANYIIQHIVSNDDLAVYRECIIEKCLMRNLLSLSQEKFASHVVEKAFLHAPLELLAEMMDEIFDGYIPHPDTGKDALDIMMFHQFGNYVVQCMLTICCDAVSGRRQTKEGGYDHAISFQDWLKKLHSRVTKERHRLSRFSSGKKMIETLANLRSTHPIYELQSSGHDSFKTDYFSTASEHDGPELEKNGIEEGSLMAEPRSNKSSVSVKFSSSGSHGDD

FBF-2 RBD = target: T2, FBF-2 RBD (Caenorhabditis elegans, UniProt Q09312); conditions: reported previously, cited from earlier work
T2 construct: The FBF-2 RBD protein (residue 164-575) was purified as described previously; His6-SUMO (N, cleaved yes); made in house; host or cells: E. coli BL21-CodonPlus (DE3)-RIL (host inferred: b50 says the procedure was otherwise the same as for RBD + CT)
T2 sequence (Q09312 whole entry, looked up): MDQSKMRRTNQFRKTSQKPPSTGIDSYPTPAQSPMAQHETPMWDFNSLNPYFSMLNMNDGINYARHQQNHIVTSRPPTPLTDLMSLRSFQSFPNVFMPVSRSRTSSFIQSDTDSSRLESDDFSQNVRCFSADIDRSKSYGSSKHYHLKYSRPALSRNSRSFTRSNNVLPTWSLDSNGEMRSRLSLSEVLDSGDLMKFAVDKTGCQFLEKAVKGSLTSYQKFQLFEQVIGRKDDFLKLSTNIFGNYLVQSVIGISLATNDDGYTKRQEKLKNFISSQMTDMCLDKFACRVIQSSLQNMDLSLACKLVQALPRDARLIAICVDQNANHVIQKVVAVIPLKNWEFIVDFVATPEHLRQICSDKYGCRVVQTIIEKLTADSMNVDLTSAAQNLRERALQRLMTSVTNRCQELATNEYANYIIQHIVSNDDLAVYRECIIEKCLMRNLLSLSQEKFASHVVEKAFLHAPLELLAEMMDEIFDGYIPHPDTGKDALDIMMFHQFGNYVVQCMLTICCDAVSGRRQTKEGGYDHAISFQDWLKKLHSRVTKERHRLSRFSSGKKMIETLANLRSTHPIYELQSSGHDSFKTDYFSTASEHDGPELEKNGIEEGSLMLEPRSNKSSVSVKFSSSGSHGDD
Excerpt: Given that the core residues of three distinct PIMs—FBF-2 CT, LST-1 A, and LST-1 B—all bind to the same site of FBF-2, we hypothesized that the intramolecular FBF-2 CT binding could compete with LST-1 A and LST-1 B binding. To assess that idea, we investigated how the CT affects the protein interaction affinities of the FBF-2 RBD to LST-1 A and LST-1 B, using isothermal titration calorimetry (ITC, Supplementary Table 3). No RNA was included in these experiments. We first measured the binding affinity of an isolated CT peptide and the FBF-2 RBD (no CT), by titrating the peptide, FBF-2^601–632, ... || Fig. 2 The FBF-2 CT competes with partner proteins for binding to the RBD. Representative isothermal titration calorimetry thermograms (top, differential power [DP] vs time) and corresponding titration curve-fitting graphs (bottom) are shown for interaction between a FBF-2 RBD and FBF-2 CT, c FBF-2 RBD + CT and LST-1 A, d FBF-2 RBD + CT and LST-1 B, e FBF-2 RBD and FBF-2 CT L610A, f FBF-2 RBD + CT L610A and LST-1 A, and g FBF-2 RBD + CT L610A and LST-1 B. Data points on the curve-fitting graphs are shown as open circles. b Previously reported mean Kd from two independent replicates with simila ... || We next compared the protein interaction affinities of LST-1 A or LST-1 B with either FBF-2 RBD + CT or RBD alone (Fig. 2c–g, Supplementary Table 3). For these experiments, we titrated the LST-1 peptide into an ITC cell containing either RBD + CT or RBD.

FBF-2 RBD + CT = target: T3, FBF-2 RBD + CT (Caenorhabditis elegans, UniProt Q09312); experiment: ITC, peptide into FBF-2 RBD + CT, no RNA; type: binding, C. elegans; conditions: 20 °C, pH 7.4
T3 construct: A cDNA fragment encoding C. elegans FBF-2 RBD + CT (residues 164-632) was cloned into the pSMT3 vector; His6-SUMO (N, cleaved yes); made in house; host or cells: E. coli BL21-CodonPlus (DE3)-RIL
T3 sequence (Q09312 whole entry, looked up): T2 sequence (Q09312 whole entry, looked up)

FBF-2 RBD+CT Y479A [1] = target: T4, FBF-2 RBD+CT Y479A (Caenorhabditis elegans, UniProt Q09312 164-632, Y479A); experiment: EMSA; 50 uM LST-1 B present (Y479A disrupts LST-1 binding, no complex); EMSA: FBF-2 in 20 mM HEPES pH 7.4, 150 mM NaCl, 0.5 mM TCEP mixed 1:1 with 5 nM final RNA in 10 mM HEPES pH 7.4, 0.01% Tween 20, 0.1 mg/ml BSA, 0.1 mg/ml yeast; conditions: protein: recombinant; tags: none (His6-SUMO removed with Ulp1); label: 3'-Cy5
T4 sequence: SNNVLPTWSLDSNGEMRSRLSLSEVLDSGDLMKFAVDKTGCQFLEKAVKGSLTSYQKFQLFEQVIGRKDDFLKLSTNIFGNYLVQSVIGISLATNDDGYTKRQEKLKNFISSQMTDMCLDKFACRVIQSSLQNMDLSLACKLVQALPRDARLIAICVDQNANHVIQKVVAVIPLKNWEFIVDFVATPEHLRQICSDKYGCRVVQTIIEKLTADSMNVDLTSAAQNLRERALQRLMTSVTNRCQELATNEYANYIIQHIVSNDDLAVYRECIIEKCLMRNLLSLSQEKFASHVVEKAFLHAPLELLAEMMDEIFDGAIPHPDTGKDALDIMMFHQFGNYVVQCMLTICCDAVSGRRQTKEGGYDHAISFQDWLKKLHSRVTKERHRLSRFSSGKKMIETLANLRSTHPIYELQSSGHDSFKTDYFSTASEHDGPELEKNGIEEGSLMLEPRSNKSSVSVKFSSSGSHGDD

FBF-2 RBD+CT Y479A [2] = target: T4, FBF-2 RBD+CT Y479A; experiment: EMSA; no LST-1; EMSA: FBF-2 in 20 mM HEPES pH 7.4, 150 mM NaCl, 0.5 mM TCEP mixed 1:1 with 5 nM final RNA in 10 mM HEPES pH 7.4, 0.01% Tween 20, 0.1 mg/ml BSA, 0.1 mg/ml yeast; conditions: protein: recombinant; tags: none (His6-SUMO removed with Ulp1); label: 3'-Cy5

Molecule: LST-1 B: LST-1 B peptide, residues 67–98, expressed in E. coli (SSSPQQRSGLRSQKLHLTYIEKNKRVRAMIPQ; left off: His6-SUMO, N-terminal, cleaved)
- ∆G (FBF-2 RBD + CT L610A): -9.85 kcal/mol
- -T∆S (FBF-2 RBD + CT L610A; replicate 1, 20 °C): 6 kcal/mol
- ∆G (FBF-2 RBD + CT L610A; replicate 1, 20 °C): -9.56 kcal/mol
- ∆H (FBF-2 RBD + CT L610A; replicate 1, 20 °C): -15.5 kcal/mol
- -T∆S (FBF-2 RBD + CT L610A; replicate 2, 20 °C): 6.98 kcal/mol
- ∆H (FBF-2 RBD + CT L610A; replicate 2, 20 °C): -16.8 kcal/mol
- -T∆S (FBF-2 RBD; replicate 1): 7.7 kcal/mol
- ∆G (FBF-2 RBD; replicate 1): -9.85 kcal/mol
- ∆H (FBF-2 RBD; replicate 1): -17.5 kcal/mol
- -T∆S (FBF-2 RBD; replicate 2): 7.17 kcal/mol
- ∆G (FBF-2 RBD; replicate 2): -9.87 kcal/mol
- ∆H (FBF-2 RBD; replicate 2): -17 kcal/mol
- -T∆S (FBF-2 RBD + CT; replicate 1): 2.08 kcal/mol
- ∆G (FBF-2 RBD + CT; replicate 1): -7.62 kcal/mol
- ∆H (FBF-2 RBD + CT; replicate 1): -9.7 kcal/mol
- -T∆S (FBF-2 RBD + CT; replicate 2): 2.27 kcal/mol
- ∆G (FBF-2 RBD + CT; replicate 2): -7.36 kcal/mol
- ∆H (FBF-2 RBD + CT; replicate 2): -9.61 kcal/mol

Molecule: AUCAUGUGCCAUAC (ssRNA) [gld-1 FBEa RNA (EMSA)]
- Kd (FBF-2 RBD+CT Y479A [1]): 41 ± 6 nM
- Kd (FBF-2 RBD+CT Y479A [2]): 62 ± 14 nM
